This note sets out measurements from doi:10.1101/2023.01.23.525122 (bioRxiv, 2023).

B1: NPM1-T4sD (natural protein, UniProt P06748 1-294, looked up)
chain: MEDSMDMDMSPLRPQNYLFGCELKADKDYHFKVDNDENEHQLSLRTVSLGAGAKDELHIVEAEAMNYEGSPIKVTLATLKMSVQPTVSLGGFEITPPVVLRLKCGSGPVHISGQHLVAVEEDAESEDEEEEDVKLLSISGKRSAPGGGSKVPQKKVKLAADEDDDDDDEEDDDEDDDDDDFDDEEAEEKAPVKKSIRDDPAKNAQKSNQNGKDSKPSSDPRSKGQESFKKQEKDPKDPKGPSSVEDIKAKMQASIEKGGSLPKVEAKFINYVKNCFRMTDQEAIQDLWQWRKSL
B2: NPM1(1–188) (domain or fragment, UniProt P06748 1-188, looked up)
chain: MEDSMDMDMSPLRPQNYLFGCELKADKDYHFKVDNDENEHQLSLRTVSLGAGAKDELHIVEAEAMNYEGSPIKVTLATLKMSVQPTVSLGGFEITPPVVLRLKCGSGPVHISGQHLVAVEEDAESEDEEEEDVKLLSISGKRSAPGGGSKVPQKKVKLAADEDDDDDDEEDDDEDDDDDDFDDEEAEE
B3: NPM1(1–117) (domain or fragment, UniProt P06748 1-117, looked up)
chain: MEDSMDMDMSPLRPQNYLFGCELKADKDYHFKVDNDENEHQLSLRTVSLGAGAKDELHIVEAEAMNYEGSPIKVTLATLKMSVQPTVSLGGFEITPPVVLRLKCGSGPVHISGQHLV
B4: NPM1(1–140) (domain or fragment, UniProt P06748 1-140, looked up)
chain: MEDSMDMDMSPLRPQNYLFGCELKADKDYHFKVDNDENEHQLSLRTVSLGAGAKDELHIVEAEAMNYEGSPIKVTLATLKMSVQPTVSLGGFEITPPVVLRLKCGSGPVHISGQHLVAVEEDAESEDEEEEDVKLLSISG
B5: NPM1(1–130) (domain or fragment, UniProt P06748 1-130, looked up)
chain: MEDSMDMDMSPLRPQNYLFGCELKADKDYHFKVDNDENEHQLSLRTVSLGAGAKDELHIVEAEAMNYEGSPIKVTLATLKMSVQPTVSLGGFEITPPVVLRLKCGSGPVHISGQHLVAVEEDAESEDEEE
B6: NPM1(1–160) (domain or fragment, UniProt P06748 1-160, looked up)
chain: MEDSMDMDMSPLRPQNYLFGCELKADKDYHFKVDNDENEHQLSLRTVSLGAGAKDELHIVEAEAMNYEGSPIKVTLATLKMSVQPTVSLGGFEITPPVVLRLKCGSGPVHISGQHLVAVEEDAESEDEEEEDVKLLSISGKRSAPGGGSKVPQKKVKLAA
B7: NPM1(1–150) (domain or fragment, UniProt P06748 1-150, looked up)
chain: MEDSMDMDMSPLRPQNYLFGCELKADKDYHFKVDNDENEHQLSLRTVSLGAGAKDELHIVEAEAMNYEGSPIKVTLATLKMSVQPTVSLGGFEITPPVVLRLKCGSGPVHISGQHLVAVEEDAESEDEEEEDVKLLSISGKRSAPGGGSK
B8: NPM1(7–117) (domain or fragment, UniProt P06748 7-117, looked up)
chain: MDMSPLRPQNYLFGCELKADKDYHFKVDNDENEHQLSLRTVSLGAGAKDELHIVEAEAMNYEGSPIKVTLATLKMSVQPTVSLGGFEITPPVVLRLKCGSGPVHISGQHLV
B9: NPM1(7–117)-K32A (domain or fragment, UniProt P06748 7-117, looked up)
chain: MDMSPLRPQNYLFGCELKADKDYHFAVDNDENEHQLSLRTVSLGAGAKDELHIVEAEAMNYEGSPIKVTLATLKMSVQPTVSLGGFEITPPVVLRLKCGSGPVHISGQHLV
B10: NPM1(7–117)-Y67H (domain or fragment, UniProt P06748 7-117, looked up)
chain: MDMSPLRPQNYLFGCELKADKDYHFKVDNDENEHQLSLRTVSLGAGAKDELHIVEAEAMNHEGSPIKVTLATLKMSVQPTVSLGGFEITPPVVLRLKCGSGPVHISGQHLV
B11: NPM1(7–117)-Y67F (domain or fragment, UniProt P06748 7-117, looked up)
chain: MDMSPLRPQNYLFGCELKADKDYHFKVDNDENEHQLSLRTVSLGAGAKDELHIVEAEAMNFEGSPIKVTLATLKMSVQPTVSLGGFEITPPVVLRLKCGSGPVHISGQHLV
B12: NPM1-236A (natural protein, UniProt P06748 1-294, looked up)
chain: MAASMAMDMSPLRPQNYLFGCELKADKDYHFKVDNDENEHQLSLRTVSLGAGAKDELHIVEAEAMNYEGSPIKVTLATLKMSVQPTVSLGGFEITPPVVLRLKCGSGPVHISGQHLVAVEEDAESEDEEEEDVKLLSISGKRSAPGGGSKVPQKKVKLAADEDDDDDDEEDDDEDDDDDDFDDEEAEEKAPVKKSIRDTPAKNAQKSNQNGKDSKPSSTPRSKGQESFKKQEKTPKTPKGPSSVEDIKAKMQASIEKGGSLPKVEAKFINYVKNCFRMTDQEAIQDLWQWRKSL
B13: NPM1-234567A (natural protein, UniProt P06748 1-294, looked up)
chain: MAAAAAADMSPLRPQNYLFGCELKADKDYHFKVDNDENEHQLSLRTVSLGAGAKDELHIVEAEAMNYEGSPIKVTLATLKMSVQPTVSLGGFEITPPVVLRLKCGSGPVHISGQHLVAVEEDAESEDEEEEDVKLLSISGKRSAPGGGSKVPQKKVKLAADEDDDDDDEEDDDEDDDDDDFDDEEAEEKAPVKKSIRDTPAKNAQKSNQNGKDSKPSSTPRSKGQESFKKQEKTPKTPKGPSSVEDIKAKMQASIEKGGSLPKVEAKFINYVKNCFRMTDQEAIQDLWQWRKSL

The first data set deals with the molecule itself. Briefly: SDS-resistant oligomer detection by SDS-PAGE.
For the protein B1, the binding result is “binds”.

The next data set concerns the molecule itself. Briefly: SDS-resistant oligomer detection by SDS-PAGE. The source holds these as a separate data set.
On to B2, for which the binding result is listed as “binds”.

Regarding B3, the binding result is recorded as “binds”.

As for B4, the binding result is listed as “binds”.

Regarding B5, the binding result was “binds”.

For the protein B6, the binding result is listed as “binds”.

As to B7, the binding result was “binds”.

Another data set deals with the molecule itself. Briefly: SDS-resistant oligomer detection by SDS-PAGE. The source holds these as a separate data set.
Turning to B8, the binding result is recorded as “binds”.

Turning to B9, the binding result is reported as “binds”.

On to B10, for which the binding result is “binds”.

Regarding B11, the binding result is on record as “binds”.

Another data set concerns the molecule itself. Briefly: SDS-resistant oligomer detection by SDS-PAGE. The source holds these as a separate data set.
Take B12: the binding result was “binds”.

With B13, the binding result is recorded as “binds”.
